± gives the standard deviation of the averaged measurements.
Tested on: ATP
Assay: switch fluorescence ratio, 500 uM ATP over buffer (Cy3 cluster intensity, sum of 5 cycles each) (fold (ratio)); higher = stronger signal-on switching upon ATP binding; sequences stand for … in TCGTCGGCAGCGTCAGATGTGTATAAGAGACAGTTTTTTTTTTTTTTTTTTTTTTTTT…TC
Details: aptamer strand: ATP DNA aptamer (quencher-CACCTGGGGGAGTATTGCGGAGGAAGG + anchor), 100 nM annealed; ATP concentration: 500 uM
Procedure, shortened: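 Clusters with intensities outside 100-1000 RFU were excluded. The remaining Cy3-labelled switching-strand clusters on a modified Illumina MiSeq flow-cell had been annealed to 100 nM quencher-labelled ATP aptamer and imaged in selection buffer, then after 15 min with 500 uM ATP at 22 °C, for five cycles separated by NaOH stripping and re-annealing. The fluorescence ratio, averaged per switch-domain sequence, is each cluster's summed target-cycle Cy3 intensity over its summed buffer-cycle Cy3 intensity.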
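Further: ATP exposure 15 min at 22 °C before imaging.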

| Sequence | switch fluorescence ratio |
| --- | --- |
| ACTATGGGGA | 1.01 ± 0.0026 |
| ACTATGTGTG | 0.99 ± 0.031 |
| ACTATTCGCT | 1.02 ± 0.01 |
| ACTATTCGGC | 0.982 ± 0.02 |
| ACTATTGGGG | 0.989 ± 0.011 |
| ACTCAATTAG | 1.025 ± 0.01 |
| ACTCAATTAT | 1.02 ± 0.042 |
| ACTCAGTTCT | 1.03 ± 0.016 |
| ACTCATGGCA | 1.09 ± 0.046 |
| ACTCATTTC | 1.03 ± 0.047 |
| ACTCATTTTA | 1.02 ± 0.024 |
| ACTCGAAAAA | 1.04 ± 0.026 |
| ACTCGATTTT | 1.02 ± 0.033 |
| ACTCGGCCC | 1.23 ± 0.015 |
| ACTCGGCGGT | 2.14 ± 1.7 |
| ACTCGGCTTG | 1.03 ± 0.023 |
| ACTCGGGTGG | 1.019 ± 0.0096 |
| ACTCTATACA | 1.11 ± 0.088 |
| ACTGAAGGGG | 1.02 ± 0.059 |
| ACTGAATTGG | 1.001 ± 0.0029 |
| ACTGAGGAT | 0.9994 ± 0.003 |
| ACTGAGGGGA | 1 ± 0.08 |
| ACTGAGTTGG | 0.986 ± 0.013 |

| Sequence | switch fluorescence ratio |
| --- | --- |
| ACTGATTTTA | 1.01 ± 0.056 |
| ACTGCAGAGG | 1.08 ± 0.034 |
| ACTGCGGGTC | 1.031 ± 0.0063 |
| ACTGCTAATT | 1.08 ± 0.039 |
| ACTGCTAGGG | 1.02 ± 0.013 |
| ACTGGAGGGT | 1.02 ± 0.044 |
| ACTGGCATTG | 1.02 ± 0.044 |
| ACTGGCCCCG | 1.34 ± 0.41 |
| ACTGGCTCCT | 1.02 ± 0.056 |
| ACTGGGAAG | 1.05 ± 0.064 |
| ACTGGGCCGT | 1.01 ± 0.046 |
| ACTGGGGCCA | 0.972 ± 0.047 |
| ACTGGGGCCG | 1.01 ± 0.056 |
| ACTGGGGGTA | 1.01 ± 0.025 |
| ACTGGGTATT | 0.963 ± 0.061 |
| ACTGGTAACG | 1.02 ± 0.024 |
| ACTGGTATA | 0.994 ± 0.032 |
| ACTGTAAATT | 1.086 ± 0.0031 |
| ACTGTAGGGC | 1.04 ± 0.04 |
| ACTGTGCGCC | 1.01 ± 0.029 |
| ACTGTGGGGT | 0.996 ± 0.022 |
| ACTGTTATGA | 1.08 ± 0.058 |
| ACTGTTATGG | 1.066 ± 0.0077 |

| Sequence | switch fluorescence ratio |
| --- | --- |
| ACTGTTGGGG | 0.999 ± 0.02 |
| ACTTAATAAC | 1.03 ± 0.013 |
| ACTTAATTTG | 1 ± 0.044 |
| ACTTACAGCT | 1.19 ± 0.017 |
| ACTTAGCAA | 1.92 ± 0.092 |
| ACTTAGTTAA | 1.02 ± 0.015 |
| ACTTATCATT | 1.04 ± 0.013 |
| ACTTATCCTT | 1.0512 ± 0.00011 |
| ACTTATGCAT | 1.055 ± 0.0046 |
| ACTTCACTCG | 1.42 ± 0.098 |
| ACTTCCGTTC | 1.35 ± 0.017 |
| ACTTCGGGTA | 1.003 ± 0.0017 |
| ACTTCGTATG | 1.03 ± 0.011 |
| ACTTGCACGT | 1.175 ± 0.0094 |
| ACTTGCTTAC | 2 ± 0.022 |
| ACTTGGAGCG | 1.018 ± 0.0092 |
| ACTTGTAATG | 0.989 ± 0.049 |
| ACTTGTGGGG | 0.973 ± 0.037 |
| ACTTGTTGCG | 0.989 ± 0.056 |
| ACTTTAGGGA | 0.974 ± 0.019 |
| ACTTTCTGAC | 1.22 ± 0.24 |
| ACTTTGCATT | 1.19 ± 0.038 |
| ACTTTGGCC | 1.0113 ± 0.00058 |

| Sequence | switch fluorescence ratio |
| --- | --- |
| ACTTTGGGGA | 1.033 ± 0.0065 |
| ACTTTGGTAT | 0.982 ± 0.029 |
| ACTTTTACA | 1.155 ± 0.0053 |
| ACTTTTTGTG | 1 ± 0.013 |
| AGAAAAAATG | 0.974 ± 0.05 |
| AGAAAAACGG | 1.12 ± 0.25 |
| AGAAAAATGG | 0.998 ± 0.02 |
| AGAAAAGGGT | 0.997 ± 0.03 |
| AGAAAAGGTT | 0.98 ± 0.021 |
| AGAAACAAGG | 0.979 ± 0.027 |
| AGAAACGTAT | 1.13 ± 0.013 |
| AGAAAGACTT | 1.04 ± 0.047 |
| AGAAAGAGGA | 0.987 ± 0.023 |
| AGAAAGGGCC | 0.966 ± 0.055 |
| AGAAAGGTCT | 1.026 ± 0.0085 |
| AGAAATATAT | 1.23 ± 0.35 |
| AGAAATGATA | 1.001 ± 0.0019 |
| AGAAATTAGT | 1.03 ± 0.015 |
| AGAAATTCGA | 1.03 ± 0.012 |
| AGAACACAGT | 1.006 ± 0.0014 |
| AGAACATTGG | 0.985 ± 0.013 |
| AGAACCTTCG | 3.17 ± 0.38 |
| AGAACGGTGG | 0.9693 ± 0.0096 |

| Sequence | switch fluorescence ratio |
| --- | --- |
| AGAACTGTAA | 1.08 ± 0.034 |
| AGAACTTTTT | 0.98 ± 0.011 |
| AGAAGATGCT | 0.9797 ± 0.0088 |
| AGAAGATGTG | 0.973 ± 0.059 |
| AGAAGATTGG | 0.9723 ± 0.0053 |
| AGAAGCCCCC | 1.02 ± 0.048 |
| AGAAGGATGG | 0.983 ± 0.026 |
| AGAAGGATTA | 1 ± 0.017 |
| AGAAGGGCCC | 0.9967 ± 0.0016 |
| AGAAGGGGCG | 1.02 ± 0.06 |
| AGAAGGGGTT | 1.04 ± 0.053 |
| AGAAGGTCGG | 1.01 ± 0.036 |
| AGAAGTGCGG | 0.984 ± 0.032 |
| AGAATAAGTT | 1.013 ± 0.0018 |
| AGAATATTAG | 0.987 ± 0.037 |
| AGAATATTGG | 0.982 ± 0.046 |
| AGAATCAGGC | 1.04 ± 0.17 |
| AGAATCCAGC | 0.982 ± 0.021 |
| AGAATCCGGG | 0.97 ± 0.041 |
| AGAATCGGCA | 0.997 ± 0.031 |
| AGAATGCACG | 0.957 ± 0.035 |
| AGAATGGCTT | 1 ± 0.041 |
| AGAATGGTCG | 1.03 ± 0.03 |

| Sequence | switch fluorescence ratio |
| --- | --- |
| AGAATGTGC | 0.9956 ± 0.0047 |
| AGAATTATCT | 1 ± 0.024 |
| AGAATTTGCG | 0.974 ± 0.018 |
| AGACAAAGA | 0.967 ± 0.022 |
| AGACAAAGCG | 1.03 ± 0.035 |
| AGACAATATT | 0.979 ± 0.032 |
| AGACAATTCA | 1.02 ± 0.019 |
| AGACACATCC | 1.11 ± 0.022 |
| AGACAGAGGG | 0.988 ± 0.012 |
| AGACAGCAGC | 1.05 ± 0.011 |
| AGACCGGGGA | 0.989 ± 0.033 |
| AGACCGTTCG | 1.02 ± 0.0066 |
| AGACCTAGAC | 1.05 ± 0.025 |
| AGACCTTTTA | 1 ± 0.063 |
| AGACGAGACT | 1.08 ± 0.03 |
| AGACGAGGTA | 1.03 ± 0.05 |
| AGACGAGTCT | 0.974 ± 0.03 |
| AGACGGTAGC | 1.01 ± 0.026 |
| AGACGTTATT | 1.15 ± 0.1 |
| AGACTCCACC | 1.398 ± 0.0081 |
| AGACTGGGGG | 0.997 ± 0.033 |
| AGACTTTAAA | 1.01 ± 0.019 |
| AGAGACTATT | 1.01 ± 0.0095 |

| Sequence | switch fluorescence ratio |
| --- | --- |
| AGAGAGACGT | 0.995 ± 0.029 |
| AGAGAGGGAA | 1 ± 0.025 |
| AGAGAGGTTA | 1.02 ± 0.014 |
| AGAGAGTTTT | 0.984 ± 0.021 |
| AGAGATATGA | 1.0142 ± 0.00072 |
| AGAGATGCTT | 0.99 ± 0.032 |
| AGAGCAGGTT | 1.02 ± 0.014 |
| AGAGCATTGA | 1.013 ± 0.007 |
| AGAGCGCGCC | 1.02 ± 0.05 |
| AGAGCTGTTG | 1.01 ± 0.019 |
| AGAGGAAAAC | 1.08 ± 0.023 |
| AGAGGACTTT | 1.001 ± 0.0029 |
| AGAGGAGCGG | 1.02 ± 0.013 |
| AGAGGAGTTG | 1.03 ± 0.046 |
| AGAGGATGGG | 1 ± 0.034 |
| AGAGGCCTGT | 1.01 ± 0.0086 |
| AGAGGGAAGA | 1.01 ± 0.037 |
| AGAGGGCTGT | 1.01 ± 0.15 |
| AGAGGGGCAG | 0.961 ± 0.016 |
